B1: ATPA_HUMAN (protein, UniProt P25705 44-553, looked up)
ATP synthase F(1) complex …: QKTGTAEMSSILEERILGADTSVDLEETGRVLSIGDGIARVHGLRNVQAEEMVEFSSGLKGMSLNLEPDNVGVVVFGNDKLIKEGDIVKRTGAIVDVPVGEELLGRVVDALGNAIDGKGPIGSKTRRRVGLKAPGIIPRISVREPMQTGIKAVDSLVPIGRGQRELIIGDRQTGKTSIAIDTIINQKRFNDGSDEKKKLYCIYVAIGQKRSTVAQLVKRLTDADAMKYTIVVSATASDAAPLQYLAPYSGCSMGEYFRDNGKHALIIYDDLSKQAVAYRQMSLLLRRPPGREAYPGDVFYLHSRLLERAAKMNDAFGGGSLTALPVIETQAGDVSAYIPTNVISITDGQIFLETELFYKGIRPAINVGLSVSRVGSAAQTRAMKQVAGTMKLELAQYREVAAFAQFGSDLDAATQQLLSRGVRLTELLKQGQYSPMAIEEQVAVIYAGVRGYLDKLEPSKITKFENAFLSHVVSQHQALLGTIRADGKISEQSDAKLKEIVTNFLAGFEA
B2: ECHB_HUMAN (protein, UniProt P55084 34-474, looked up)
Trifunctional enzyme subunit …: AAPAVQTKTKKTLAKPNIRNVVVVDGVRTPFLLSGTSYKDLMPHDLARAALTGLLHRTSVPKEVVDYIIFGTVIQEVKTSNVAREAALGAGFSDKTPAHTVTMACISANQAMTTGVGLIASGQCDVIVAGGVELMSDVPIRHSRKMRKLMLDLNKAKSMGQRLSLISKFRFNFLAPELPAVSEFSTSETMGHSADRLAAAFAVSRLEQDEYALRSHSLAKKAQDEGLLSDVVPFKVPGKDTVTKDNGIRPSSLEQMAKLKPAFIKPYGTVTAANSSFLTDGASAMLIMAEEKALAMGYKPKAYLRDFMYVSQDPKDQLLLGPTYATPKVLEKAGLTMNDIDAFEFHEAFSGQILANFKAMDSDWFAENYMGRKTKVGLPPLEKFNNWGGSLSLGHPFGATGCRLVMAAANRLRKEGGQYGLVAACAAGGQGHAMIVEAYPK
B3: IF4A2_HUMAN (protein, UniProt Q14240 1-407, looked up)
Eukaryotic initiation factor …: MSGGSADYNREHGGPEGMDPDGVIESNWNEIVDNFDDMNLKESLLRGIYAYGFEKPSAIQQRAIIPCIKGYDVIAQAQSGTGKTATFAISILQQLEIEFKETQALVLAPTRELAQQIQKVILALGDYMGATCHACIGGTNVRNEMQKLQAEAPHIVVGTPGRVFDMLNRRYLSPKWIKMFVLDEADEMLSRGFKDQIYEIFQKLNTSIQVVLLSATMPTDVLEVTKKFMRDPIRILVKKEELTLEGIKQFYINVEREEWKLDTLCDLYETLTITQAVIFLNTRRKVDWLTEKMHARDFTVSALHGDMDQKERDVIMREFRSGSSRVLITTDLLARGIDVQQVSLVINYDLPTNRENYIHRIGRGGRFGRKGVAINFVTEEDKRILRDIETFYNTTVEEMPMNVADLI
B4: TBB5_HUMAN (protein, UniProt P07437 1-444, looked up)
Tubulin beta chain: MREIVHIQAGQCGNQIGAKFWEVISDEHGIDPTGTYHGDSDLQLDRISVYYNEATGGKYVPRAILVDLEPGTMDSVRSGPFGQIFRPDNFVFGQSGAGNNWAKGHYTEGAELVDSVLDVVRKEAESCDCLQGFQLTHSLGGGTGSGMGTLLISKIREEYPDRIMNTFSVVPSPKVSDTVVEPYNATLSVHQLVENTDETYCIDNEALYDICFRTLKLTTPTYGDLNHLVSATMSGVTTCLRFPGQLNADLRKLAVNMVPFPRLHFFMPGFAPLTSRGSQQYRALTVPELTQQVFDAKNMMAACDPRHGRYLTVAAVFRGRMSMKEVDEQMLNVQNKNSSYFVEWIPNNVKTAVCDIPPRGLKMAVTFIGNSTAIQELFKRISEQFTAMFRRKAFLHWYTGEGMDEMEFTEAESNMNDLVSEYQQYQDATAEEEEDFGEEAEEEA
B5: RBMX_HUMAN (protein, UniProt P38159 1-391, looked up)
RNA-binding motif protein, X …: MVEADRPGKLFIGGLNTETNEKALEAVFGKYGRIVEVLLMKDRETNKSRGFAFVTFESPADAKDAARDMNGKSLDGKAIKVEQATKPSFESGRRGPPPPPRSRGPPRGLRGGRGGSGGTRGPPSRGGHMDDGGYSMNFNMSSSRGPLPVKRGPPPRSGGPPPKRSAPSGPVRSSSGMGGRAPVSRGRDSYGGPPRREPLPSRRDVYLSPRDDGYSTKDSYSSRDYPSSRDTRDYAPPPRDYTYRDYGHSSSRDDYPSRGYSDRDGYGRDRDYSDHPSGGSYRDSYESYGNSRSAPPTRGPPPSYGGSSRYDDYSSSRDGYGGSRDSYSSSRSDLYSSGRDRVGRQERGLPPSMERGYPPPRDSYSSSSRGAPRGGGRGGSRSDRGGGRSRY
B6: KDM4A_HUMAN (protein, UniProt O75164 2-1064, looked up)
Lysine-specific demethylase 4A: ASESETLNPSARIMTFYPTMEEFRNFSRYIAYIESQGAHRAGLAKVVPPKEWKPRASYDDIDDLVIPAPIQQLVTGQSGLFTQYNIQKKAMTVREFRKIANSDKYCTPRYSEFEELERKYWKNLTFNPPIYGADVNGTLYEKHVDEWNIGRLRTILDLVEKESGITIEGVNTPYLYFGMWKTSFAWHTEDMDLYSINYLHFGEPKSWYSVPPEHGKRLERLAKGFFPGSAQSCEAFLRHKMTLISPLMLKKYGIPFDKVTQEAGEFMITFPYGYHAGFNHGFNCAESTNFATRRWIEYGKQAVLCSCRKDMVKISMDVFVRKFQPERYKLWKAGKDNTVIDHTLPTPEAAEFLKESELPPRAGNEEECPEEDMEGVEDGEEGDLKTSLAKHRIGTKRHRVCLEIPQEVSQSELFPKEDLSSEQYEMTECPAALAPVRPTHSSVRQVEDGLTFPDYSDSTEVKFEELKNVKLEEEDEEEEQAAAALDLSVNPASVGGRLVFSGSKKKSSSSLGSGSSRDSISSDSETSEPLSCRAQGQTGVLTVHSYAKGDGRVTVGEPCTRKKGSAARSFSERELAEVADEYMFSLEENKKSKGRRQPLSKLPRHHPLVLQECVSDDETSEQLTPEEEAEETEAWAKPLSQLWQNRPPNFEAEKEFNETMAQQAPHCAVCMIFQTYHQVEFGGFNQNCGNASDLAPQKQRTKPLIPEMCFTSTGCSTDINLSTPYLEEDGTSILVSCKKCSVRVHASCYGVPPAKASEDWMCSRCSANALEEDCCLCSLRGGALQRANDDRWVHVSCAVAILEARFVNIAERSPVDVSKIPLPRFKLKCIFCKKRRKRTAGCCVQCSHGRCPTAFHVSCAQAAGVMMQPDDWPFVVFITCFRHKIPNLERAKGALQSITAGQKVISKHKNGRFYQCEVVRLTTETFYEVNFDDGSFSDNLYPEDIVSQDCLQFGPPAEGEVVQVRWTDGQVYGAKFVASHPIQMYQVEFEDGSQLVVKRDDVYTLDEELPKRVKSRLSVASDMRFNEIFTEKEVKQEKKRQRVINSRYREDYIEPALYRAIME
B7: PAIRB_HUMAN (protein, UniProt Q8NC51 2-408, looked up)
SERPINE1 mRNA-binding protein …: PGHLQEGFGCVVTNRFDQLFDDESDPFEVLKAAENKKKEAGGGGVGGPGAKSAAQAAAQTNSNAAGKQLRKESQKDRKNPLPPSVGVVDKKEETQPPVALKKEGIRRVGRRPDQQLQGEGKIIDRRPERRPPRERRFEKPLEEKGEGGEFSVDRPIIDRPIRGRGGLGRGRGGRGRGMGRGDGFDSRGKREFDRHSGSDRSSFSHYSGLKHEDKRGGSGSHNWGTVKDELTESPKYIQKQISYNYSDLDQSNVTEETPEGEEHHPVADTENKENEVEEVKEEGPKEMTLDEWKAIQNKDRAKVEFNIRKPNEGADGQWKKGFVLHKSKSEEAHAEDSVMDHHFRKPANDITSQLEINFGDLGRPGRGGRGGRGGRGRGGRPNRGSRTDKSSASAPDVDDPEAFPALA
B8: EF1A1_HUMAN (protein, UniProt P68104 2-462, looked up)
Elongation factor 1-alpha 1: GKEKTHINIVVIGHVDSGKSTTTGHLIYKCGGIDKRTIEKFEKEAAEMGKGSFKYAWVLDKLKAERERGITIDISLWKFETSKYYVTIIDAPGHRDFIKNMITGTSQADCAVLIVAAGVGEFEAGISKNGQTREHALLAYTLGVKQLIVGVNKMDSTEPPYSQKRYEEIVKEVSTYIKKIGYNPDTVAFVPISGWNGDNMLEPSANMPWFKGWKVTRKDGNASGTTLLEALDCILPPTRPTDKPLRLPLQDVYKIGGIGTVPVGRVETGVLKPGMVVTFAPVNVTTEVKSVEMHHEALSEALPGDNVGFNVKNVSVKDVRRGNVAGDSKNDPPMEAAGFTAQVIILNHPGQISAGYAPVLDCHTAHIACKFAELKEKIDRRSGKKLEDGPKFLKSGDAAIVDMVPGKPMCVESFSDYPPLGRFAVRDMRQTVAVGVIKAVDKKAAGAGKVTKSAQKAQKAK

Tested on: KDM4A-I71AzF
Experiment: CASI: photo-crosslinking with HEK293T cell extracts, StrepTactin enrichment and LC-MS/MS proteomics;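 also: lysates from HEK293T cells pretreated with a KDM4 inhibitor to raise proteome methylation, affinity-purified after ±UV, gel-resolved, trypsin-digested, with exclusive unique peptides per protein averaged per condition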
Assay type: binding, human
Conditions: sheet "Final results but with 0.01"

Going from B1 to B2, the “Fold change (+UV/-UV)” value falls from 1.4 to 0.

Going from B3 to B4, the “Fold change (+UV/-UV)” value falls from 200 to 0.75.

Going from B5 to B6, the “Fold change (+UV/-UV)” value falls from 200 to 1.184.

Compared with B7, B8 is higher in “Fold change (+UV/-UV)” value: 0.8571 for the first, 0.9444 for the second.

Source: PMC10540216, “Activity Guided Azide-methyllysine Photo-trapping for Substrate Profiling of Lysine Demethylases” (Journal of the American Chemical Society, 2023)
